Drawing on the supplement of paper PMC6379048, this text covers Kd for 3 sequences.

Holding throughout (test): Kd (EC50 corrected by depletion factor)
Data set [1] has as its target U2AF2 (UniProt P26368). In a few lines:
(§1)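 HEK293-FT lysate (2.5 mg protein/well) was treated with free RNA oligos (0 nM to 30 μM) for 1 h at 4°C, then with the same oligos on NHS-Sepharose beads for 30 min at 4°C. Bound proteins were quantified by label-free LC-MS/MS relative to the control. EC50 came from a four-parameter log-logistic fit, and Kd is EC50 times a protein-dependent depletion factor.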

The target of data set [2] is T1, ERI3 (UniProt O43414).
T1 sequence: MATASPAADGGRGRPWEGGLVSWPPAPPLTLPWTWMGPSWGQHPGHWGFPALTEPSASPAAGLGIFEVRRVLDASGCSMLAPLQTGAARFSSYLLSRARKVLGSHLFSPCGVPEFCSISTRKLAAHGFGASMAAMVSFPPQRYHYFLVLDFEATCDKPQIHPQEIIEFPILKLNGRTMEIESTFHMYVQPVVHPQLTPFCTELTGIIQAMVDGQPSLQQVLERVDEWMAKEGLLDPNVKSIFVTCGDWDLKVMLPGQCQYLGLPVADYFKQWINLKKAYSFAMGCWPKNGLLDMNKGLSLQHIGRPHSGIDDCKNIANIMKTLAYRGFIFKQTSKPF
The method in brief: as §1

Data set [3] concerns the target T2, U2AF1 (UniProt Q01081).
T2 sequence: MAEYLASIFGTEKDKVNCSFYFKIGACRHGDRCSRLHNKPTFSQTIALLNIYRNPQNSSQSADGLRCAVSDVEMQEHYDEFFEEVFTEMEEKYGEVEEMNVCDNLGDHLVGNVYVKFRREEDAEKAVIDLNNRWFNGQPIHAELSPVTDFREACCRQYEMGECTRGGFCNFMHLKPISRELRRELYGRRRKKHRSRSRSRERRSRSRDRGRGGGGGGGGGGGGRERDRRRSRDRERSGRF
The method in brief: as §1

The target in data set [4] is MRPL53 (UniProt Q96EL3). In a few lines:
as §1

Data set [5] concerns the target HNRNPU (UniProt Q00839). In a few lines: as §1
Data set [6] has as its target T3, SRSF4 (UniProt Q08170).
T3 sequence: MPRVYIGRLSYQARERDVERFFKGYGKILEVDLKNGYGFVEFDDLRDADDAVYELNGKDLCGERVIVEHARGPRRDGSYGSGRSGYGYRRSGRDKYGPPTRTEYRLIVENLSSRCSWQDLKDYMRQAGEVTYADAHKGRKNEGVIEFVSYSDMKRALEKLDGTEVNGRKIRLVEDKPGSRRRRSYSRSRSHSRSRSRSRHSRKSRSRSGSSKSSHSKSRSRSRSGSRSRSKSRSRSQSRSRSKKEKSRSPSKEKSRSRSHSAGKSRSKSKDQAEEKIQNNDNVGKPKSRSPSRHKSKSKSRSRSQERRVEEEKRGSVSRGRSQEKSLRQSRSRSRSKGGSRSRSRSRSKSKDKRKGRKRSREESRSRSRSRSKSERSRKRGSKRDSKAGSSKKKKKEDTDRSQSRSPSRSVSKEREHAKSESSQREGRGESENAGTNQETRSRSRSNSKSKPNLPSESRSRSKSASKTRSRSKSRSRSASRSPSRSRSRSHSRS
The method in brief: as §1

The target in data set [7] is RPS13 (UniProt P62277). The method in brief: as §1
Data set [8] deals with SRSF6 (UniProt Q13247). In a few lines: as §1
Chain of SRSF6 (Q13247 whole entry, looked up): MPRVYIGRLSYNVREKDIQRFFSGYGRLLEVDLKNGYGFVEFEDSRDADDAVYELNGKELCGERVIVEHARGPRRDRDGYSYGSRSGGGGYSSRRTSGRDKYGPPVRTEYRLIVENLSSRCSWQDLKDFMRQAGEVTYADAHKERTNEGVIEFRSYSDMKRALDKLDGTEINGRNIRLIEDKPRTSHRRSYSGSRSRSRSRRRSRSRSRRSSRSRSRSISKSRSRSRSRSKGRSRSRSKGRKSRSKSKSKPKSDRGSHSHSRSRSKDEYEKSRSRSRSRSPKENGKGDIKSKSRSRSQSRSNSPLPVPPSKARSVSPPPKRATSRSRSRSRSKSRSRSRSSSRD
Data set [9] addresses MRPL22 (UniProt Q9NWU5). The method in brief: as §1
Data set [10] has as its target HNRNPA1 (UniProt P09651). In a few lines:
as §1

The target of data set [11] is TOE1 (UniProt Q96GM8). In a few lines:
as §1

The target in data set [12] is T4, PLOD1 (UniProt Q02809).
T4 sequence: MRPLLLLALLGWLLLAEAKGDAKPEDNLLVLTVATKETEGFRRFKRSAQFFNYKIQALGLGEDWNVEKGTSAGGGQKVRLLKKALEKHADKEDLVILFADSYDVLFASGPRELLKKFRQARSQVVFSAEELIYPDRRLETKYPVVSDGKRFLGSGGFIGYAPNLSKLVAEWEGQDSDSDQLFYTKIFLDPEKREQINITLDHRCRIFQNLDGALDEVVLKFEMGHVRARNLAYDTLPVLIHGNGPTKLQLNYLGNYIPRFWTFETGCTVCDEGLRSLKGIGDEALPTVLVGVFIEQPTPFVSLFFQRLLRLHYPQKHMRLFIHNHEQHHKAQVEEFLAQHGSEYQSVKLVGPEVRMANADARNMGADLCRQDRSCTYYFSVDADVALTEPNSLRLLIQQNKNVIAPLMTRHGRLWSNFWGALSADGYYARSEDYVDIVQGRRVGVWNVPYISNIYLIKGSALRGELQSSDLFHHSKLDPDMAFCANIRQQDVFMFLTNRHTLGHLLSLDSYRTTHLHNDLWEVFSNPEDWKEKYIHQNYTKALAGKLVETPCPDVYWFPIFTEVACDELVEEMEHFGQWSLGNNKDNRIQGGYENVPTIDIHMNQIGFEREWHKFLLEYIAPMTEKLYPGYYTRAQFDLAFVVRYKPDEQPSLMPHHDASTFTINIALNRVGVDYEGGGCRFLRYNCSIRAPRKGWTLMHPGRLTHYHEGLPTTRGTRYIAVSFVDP
The method in brief:
as §1

For data set [13], the target named is TSN (UniProt Q15631). The method in brief:
as §1

Chain of U2AF2 (P26368 whole entry): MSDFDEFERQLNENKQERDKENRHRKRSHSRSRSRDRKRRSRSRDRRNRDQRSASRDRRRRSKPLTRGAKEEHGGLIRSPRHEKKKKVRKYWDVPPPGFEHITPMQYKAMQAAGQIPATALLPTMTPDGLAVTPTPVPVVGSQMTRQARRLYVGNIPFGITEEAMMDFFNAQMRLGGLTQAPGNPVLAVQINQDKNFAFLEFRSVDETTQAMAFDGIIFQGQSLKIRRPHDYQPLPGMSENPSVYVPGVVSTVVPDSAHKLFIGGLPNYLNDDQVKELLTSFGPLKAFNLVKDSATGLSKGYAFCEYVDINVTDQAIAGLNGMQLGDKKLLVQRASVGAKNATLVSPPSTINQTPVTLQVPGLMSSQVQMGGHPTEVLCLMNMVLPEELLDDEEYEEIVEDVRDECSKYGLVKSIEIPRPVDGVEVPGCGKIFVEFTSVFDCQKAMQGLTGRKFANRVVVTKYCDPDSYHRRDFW
Chain of TSN (Q15631 whole entry): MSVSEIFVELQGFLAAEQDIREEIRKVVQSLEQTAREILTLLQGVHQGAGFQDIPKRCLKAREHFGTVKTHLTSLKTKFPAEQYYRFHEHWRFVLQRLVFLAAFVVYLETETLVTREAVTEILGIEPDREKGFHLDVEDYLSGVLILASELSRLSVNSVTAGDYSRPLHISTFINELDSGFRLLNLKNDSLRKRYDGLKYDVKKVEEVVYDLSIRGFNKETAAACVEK
Chain of HNRNPA1 (P09651 whole entry): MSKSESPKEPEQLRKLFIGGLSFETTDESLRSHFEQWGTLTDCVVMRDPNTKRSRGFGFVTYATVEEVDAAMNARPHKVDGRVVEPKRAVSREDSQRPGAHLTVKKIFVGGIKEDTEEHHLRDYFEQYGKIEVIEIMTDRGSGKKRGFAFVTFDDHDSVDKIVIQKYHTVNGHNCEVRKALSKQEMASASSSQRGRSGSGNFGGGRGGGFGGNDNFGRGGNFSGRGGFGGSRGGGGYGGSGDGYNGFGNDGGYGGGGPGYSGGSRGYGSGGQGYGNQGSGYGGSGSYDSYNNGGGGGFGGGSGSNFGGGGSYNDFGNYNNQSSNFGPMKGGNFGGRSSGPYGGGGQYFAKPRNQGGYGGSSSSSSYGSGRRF
Chain of HNRNPU (Q00839 whole entry): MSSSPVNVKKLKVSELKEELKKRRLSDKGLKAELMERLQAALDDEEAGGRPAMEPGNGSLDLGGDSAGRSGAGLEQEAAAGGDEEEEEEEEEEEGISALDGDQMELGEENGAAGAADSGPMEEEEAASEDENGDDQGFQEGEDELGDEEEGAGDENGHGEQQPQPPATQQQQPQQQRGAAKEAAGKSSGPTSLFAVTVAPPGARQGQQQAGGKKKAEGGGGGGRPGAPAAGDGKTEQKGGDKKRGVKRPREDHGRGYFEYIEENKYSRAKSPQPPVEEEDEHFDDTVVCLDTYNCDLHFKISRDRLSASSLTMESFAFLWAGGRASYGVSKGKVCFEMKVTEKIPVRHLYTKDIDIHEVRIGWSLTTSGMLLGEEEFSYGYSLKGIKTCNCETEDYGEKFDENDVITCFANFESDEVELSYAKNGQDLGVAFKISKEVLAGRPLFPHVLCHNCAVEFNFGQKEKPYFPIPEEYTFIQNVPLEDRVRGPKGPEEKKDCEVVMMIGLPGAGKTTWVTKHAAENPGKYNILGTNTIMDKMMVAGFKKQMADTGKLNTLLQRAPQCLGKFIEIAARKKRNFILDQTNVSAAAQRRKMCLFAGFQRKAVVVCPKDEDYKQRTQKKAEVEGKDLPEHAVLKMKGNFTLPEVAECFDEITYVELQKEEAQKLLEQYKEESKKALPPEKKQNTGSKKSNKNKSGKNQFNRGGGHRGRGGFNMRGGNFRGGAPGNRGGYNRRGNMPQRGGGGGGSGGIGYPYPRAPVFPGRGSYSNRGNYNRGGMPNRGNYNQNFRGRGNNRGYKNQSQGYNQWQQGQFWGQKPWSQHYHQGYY

In general, Kd refers to the free concentration of one partner at which half of the binding sites on the other are occupied at equilibrium, for simple one-to-one binding. Read a low Kd as higher affinity. In the case of AAUAAA, the Kd in data set [1] was 106 nM; in data set [2], 173 nM; in data set [3] it was 202 nM.

As to CUGUCCU, the Kd amounted to 100 nM in data set [4]; 90.1 nM in [5]; 312 nM in data set [6]; 39.9 nM in data set [7]; 287 nM in data set [8]; 67.4 nM in data set [9].

UAUUUAU: the Kd in [10] was 1960 nM; in data set [11] it was 1020 nM; in [12] it was 4470 nM; in data set [13], 16.8 nM.
